The target in experiment [1] is recombinant murine PrP 23–231 (murine) (UniProt P04925). Nature of the experiment: ELISA. Background: ELISA stands for enzyme-linked immunosorbent assay.
Experiment [2] shares this target. Nature of the experiment: ELISA. The source holds these as a separate data set.

The text below walks through data of article PMC6431553.

Read-outs that look alike come from different tables or passages of the source.

Chain of UniProt P04925 (P04925 23-231): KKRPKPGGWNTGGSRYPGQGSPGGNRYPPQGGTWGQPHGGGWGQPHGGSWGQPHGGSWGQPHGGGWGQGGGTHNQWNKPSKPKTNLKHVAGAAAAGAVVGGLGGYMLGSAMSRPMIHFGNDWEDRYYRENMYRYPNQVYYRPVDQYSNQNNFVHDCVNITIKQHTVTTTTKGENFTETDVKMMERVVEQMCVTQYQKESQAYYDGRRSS

Broadly, the EC50 is the concentration that produces a half-maximal response. In the case of Aβ1–42 fibrils (peptide), the EC50 in experiment [1] was 1730 nM. For the substance “Aβ-derived diffusible ligands (ADDLs), a preparation of Aβ1–42 (peptide)”, the EC50 was 113 nM in experiment [2] and 234 nM in experiment [1].
